Measured values reported in article PMC3196576, “Probing the Functional Mechanism of Escherichia coli GroEL Using Circular Permutation” (PLoS ONE, 2011).
Each block holds one binder with its values, some of them ahead of it.

What was measured:
GroEL R231W = target: T1, GroEL R231W (E. coli, UniProt P0A6F5 1-548, R231W); test: Proteinase K protection of BeFx football complexes, recovered by centrifugal concentration (100 kDa cutoff), SDS-PAGE; 0.5 µM GroEL 14-mer, 1.0 µM unfolded rhodanese, 1.1 µM GroES, 1 mM BeCl2, 10 mM NaF, 1 mM ATP; 30 mM Tris-HCl pH 7.2, 50 mM KCl, 10 mM Mg(CH3COO)2, 25°C; 1 µg/ml Proteinase K for 30 min; conditions: both partners purified
T1 construct: GroEL, Escherichia coli, with Arg231 replaced by tryptophan; also called RW; source: purified according to the protocol of Machida et al. [34]; copies: 14

[1] = target: the molecule itself; test: SEC; gel filtration profiles observed during purification (AKTA FPLC, 4°C); data not shown

binding result (GroEL R231W): binds
B1: bovine rhodanese (enzyme, UniProt P00586 1-297, looked up)
chain: MVHQVLYRALVSTKWLAESVRAGKVGPGLRVLDASWYSPGTREARKEYLERHVPGASFFDIEECRDKASPYEVMLPSEAGFADYVGSLGISNDTHVVVYDGDDLGSFYAPRVWWMFRVFGHRTVSVLNGGFRNWLKEGHPVTSEPSRPEPAIFKATLNRSLLKTYEQVLENLESKRFQLVDSRAQGRYLGTQPEPDAVGLDSGHIRGSVNMPFMNFLTEDGFEKSPEELRAMFEAKKVDLTKPLIATCRKGVTACHIALAAYLCGKPDVAIYDGSWFEWFHRAPPETWVSQGKGGKA
notes: rhodanese (thiosulfate sulfurtransferase), bovine; Unfolded for 1 hr in 6 M guanidine hydrochloride at 25°C before it was added to GroEL; also called unfolded rhodanese; source: bought: Sigma

B2: GroEL CP254 (other, E. coli)
chain: MAAAQYVEGEALATLVVNTMRGIVKVAAVKAPGFGDRRKAMLQDIATLTGGTVISEEIGMELEKATLEDLGQAKRVVINKDTTTIIDGVGEEAAIQGRVAQIRQQIEEATSDYDREKLQERVAKLAGGVAVIKVGAATEVEMKEKKARVEDALHATRAAVEEGVVAGGGVALIRVASKLADLRGQNEDQNVGIKVALRAMEAPLRQIVLNCGEEPSVVANTVKGGDGNYGYNAATEEYGNMIDMGILDPTKVTRSALQYAASVAGLMITTECMVTDLPKNDAADLGAAGGMGGMGGMGGMMVDAAKDVKFGNDARVKMLRGVNVLADAVKVTLGPKGRNVVLDKSFGAPTITKDGVSVAREIELEDKFENMGAQMVKEVASKANDAAGDGTTTATVLAQAIITEGLKAVAAGMNPMDLKRGIDKAVTAAVEELKALSVPCSDSKAIAQVGTISANSDETVGKLIAEAMDKVGKEGVITVEDGTGLQDELDVVEGMQFDRGYLSPYFINKPETGAVELESPFILLADKKISNIREMLPVLEAVAKAGKPLLIIAEDVAN
notes: start methionine and extraneous N-terminal residues (Met-Ala-Ala-Ala-Gln-Tyr); GroEL, E. coli, from Val254 to the original C-terminus; Val-Asp dipeptide linker (SalI site) joining the original C- and N-termini; GroEL, E. coli, from the original N-terminus minus the N-terminal methionine to Asp253 (Ala251-Glu252-Asp253); C-terminal residues after Asp253 (Val-Ala-Asn); Circular permutant; source: …
stoichiometry N [1]: ~14

binding result (GroEL R231W): binds
B3: GroES (natural protein, E. coli, UniProt P0A6F9 1-97, looked up)
chain: MNIRPLHDRVIVKRKEVETKSAGGIVLTGSAAAKSTRGEVLAVGNGRILENGEVKPLDVKVGDIVIFNDGYGVKSEKIDNEEVLIMSESDILAIVEA
notes: GroES cochaperonin, Escherichia coli; 7-mer; also called cochaperonin GroES; co-chaperonin; source: purified according to Iwasa et al. [35], with an 80°C heat treatment

B4: GroEL CP209 (other, E. coli)
chain: METGAVELESPFILLADKKISNIREMLPVLEAVAKAGKPLLIIAEDVEGEALATLVVNTMRGIVKVAAVKAPGFGDRRKAMLQDIATLTGGTVISEEIGMELEKATLEDLGQAKRVVINKDTTTIIDGVGEEAAIQGRVAQIRQQIEEATSDYDREKLQERVAKLAGGVAVIKVGAATEVEMKEKKARVEDALHATRAAVEEGVVAGGGVALIRVASKLADLRGQNEDQNVGIKVALRAMEAPLRQIVLNCGEEPSVVANTVKGGDGNYGYNAATEEYGNMIDMGILDPTKVTRSALQYAASVAGLMITTECMVTDLPKNDAADLGAAGGMGGMGGMGGMMVDAAKDVKFGNDARVKMLRGVNVLADAVKVTLGPKGRNVVLDKSFGAPTITKDGVSVAREIELEDKFENMGAQMVKEVASKANDAAGDGTTTATVLAQAIITEGLKAVAAGMNPMDLKRGIDKAVTAAVEELKALSVPCSDSKAIAQVGTISANSDETVGKLIAEAMDKVGKEGVITVEDGTGLQDELDVVEGMQFDRGYLSPYFINKP
notes: start methionine from the vector-derived ATG; GroEL, E. coli, from Glu209 to the original C-terminus; Val-Asp dipeptide linker (SalI site) joining the original C- and N-termini; GroEL, E. coli, from the original N-terminus minus the N-terminal methionine to Pro208; Circular permutant; source: E. coli JM109, purified (protocol of Machida et al. [34]); copies: 14
stoichiometry N [1]: ~14
